Experimental data: patent publication US20080070264A1, “Intracellular Signaling-Induced Ret-Independent Gdnf Receptor-Effected Morphological Changes” (JPMORGAN CHASE BANK N.A., priority 2003, published 2008)

Target: T1, MET (Chlorocebus aethiops, UniProt Q2IBA6)
T1 construct: different combinations of the MET β-subunit (140 kDa), Met-αβ heterodimer (190 kDa) and HGF complexes; endogenous in cells; host or cells: COS7 cells (wild type for 125I-HGF; transfected with pc3-GFRα1/GFP for 125I-GDNF)
Assay: 125I-labelled GDNF and HGF binding, chemical crosslinking, anti-MET immunoprecipitation
Settings: RET/GFRα1-expressing MDCK cells; data not shown
Description: Binding of ^125I-GDNF to COS7 cells transfected with GFRα1, and ^125-HGF to wild-type COS7, followed by cross-linking with EDC together with sulfo-NHS. Inmunoprecipitates with anti-MET antibodies (IP-Met) were analysed by SDS-PAGE under reducing conditions. ^125I-HGF α subunit and proHGF are marked by arrows. ^125I-HGF/MET complexes are denoted by arrow heads. The results are representative of five independent experiments.
GDNF and HGF were enzymatically iodinated with [^125I]NaI (Amersham Pharmacia Biotech) with lactoperoxidase to a specific activity of 100.000 cpm/ng as described (31). COS7 cells were transfected with pc3-GFRα1/GFP two days prior the assay. 2 nM of ^125I-GDNF or 1 nM of ^125I-HGF were allowed to bind to cell monolayers for 1-2 h on ice in binding buffer (DMEM/15 mM HEPES, pH 7.5; 0.2% BSA), washed, and chemically cross-linked for 30 min at room temperature using BS^3 ([Bis(sulfosuccinimidyl)suberate]), DSS ((Disulfosuccinimidyl)suberate), DSP (3,3-Dithio-bis-(sulfosuccinimidyl)propionate) or EDC ((1-Ethyl-3-[3-dimethylaminopropyl]carbodiimide Hydrochloride)) with sulfo-NHS (N-Hydroxysulfosuccinimide) (Pierce). The non-specific binding of GDNF was estimated by the amount of ^125I-GDNF binding to cells in the presence of 300 n M unlabeled GDNF. Cells were washed, lysed and immunoprecipitated with anti-MET antibodies as described. Gels were dried and analyzed by phosphorimaging in a BAS Reader 1800 (Fuji).

T1 sequence (Q2IBA6 25-1381): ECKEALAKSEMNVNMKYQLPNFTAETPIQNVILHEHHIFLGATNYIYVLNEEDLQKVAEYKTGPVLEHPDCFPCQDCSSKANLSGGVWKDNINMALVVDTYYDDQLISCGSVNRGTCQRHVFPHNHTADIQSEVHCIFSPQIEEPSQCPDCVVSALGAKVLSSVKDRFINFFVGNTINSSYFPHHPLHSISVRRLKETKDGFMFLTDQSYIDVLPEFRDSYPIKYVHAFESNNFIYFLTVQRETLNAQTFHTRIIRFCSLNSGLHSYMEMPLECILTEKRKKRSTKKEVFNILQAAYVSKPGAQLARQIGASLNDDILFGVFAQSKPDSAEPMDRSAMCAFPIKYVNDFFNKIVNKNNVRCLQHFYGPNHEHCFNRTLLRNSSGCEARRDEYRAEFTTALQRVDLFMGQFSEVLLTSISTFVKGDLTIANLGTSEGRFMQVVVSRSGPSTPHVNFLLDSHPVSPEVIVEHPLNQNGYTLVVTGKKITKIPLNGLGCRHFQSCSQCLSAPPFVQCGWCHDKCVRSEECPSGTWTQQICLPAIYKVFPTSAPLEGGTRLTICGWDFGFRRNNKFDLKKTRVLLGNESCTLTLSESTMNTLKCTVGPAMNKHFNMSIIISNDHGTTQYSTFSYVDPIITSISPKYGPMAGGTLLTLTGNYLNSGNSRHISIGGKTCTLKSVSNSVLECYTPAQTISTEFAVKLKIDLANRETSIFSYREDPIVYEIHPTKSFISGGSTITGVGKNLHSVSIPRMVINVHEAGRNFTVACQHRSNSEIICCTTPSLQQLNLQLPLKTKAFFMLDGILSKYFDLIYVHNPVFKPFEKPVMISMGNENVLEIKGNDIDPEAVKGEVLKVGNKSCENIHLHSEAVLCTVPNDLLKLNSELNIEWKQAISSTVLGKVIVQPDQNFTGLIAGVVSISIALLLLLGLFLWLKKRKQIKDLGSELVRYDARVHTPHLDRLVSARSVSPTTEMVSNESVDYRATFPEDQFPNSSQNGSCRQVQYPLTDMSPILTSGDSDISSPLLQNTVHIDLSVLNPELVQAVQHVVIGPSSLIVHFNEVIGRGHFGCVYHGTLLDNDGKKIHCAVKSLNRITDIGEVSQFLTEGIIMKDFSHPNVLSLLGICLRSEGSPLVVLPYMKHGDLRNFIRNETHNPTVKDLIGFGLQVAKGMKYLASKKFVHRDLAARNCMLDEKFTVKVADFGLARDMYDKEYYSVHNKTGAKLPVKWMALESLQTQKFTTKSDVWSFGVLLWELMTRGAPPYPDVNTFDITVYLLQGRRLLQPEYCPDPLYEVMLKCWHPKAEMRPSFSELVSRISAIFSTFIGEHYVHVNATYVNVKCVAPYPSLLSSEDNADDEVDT

B1: GDNF: recombinant glial cell line-derived neurotrophic factor from Cephalon Inc. (baculovirus-infected insect cells) or R&D Systems, Inc. (mouse myeloma NSO) (protein, UniProt P39905 78-211, looked up)
Glial cell line-derived …: SPDKQMAVLPRRERNRQAAAANPENSRGKGRRGQRGKNRGCVLTAIHLNVTDLGLGYETKEELIFRYCSGSCDAAETTYDKILKNLSRNRRLVSDKVGQACCRPIAFDDDLSFLDDNLVYHILRKHSAKRCGCI
**Q.** Which “direct association of the GDNF receptor complex and MET” value does the source give for B1 here?
**A.** no direct association
